Measurements published in article PMC2853136 (Nucleic Acids Research, 2010).

B1: His-tagged RNPC1a (recombinant) (natural protein, UniProt Q9H0Z9-1 1-239, looked up)
chain: MLLQPAPCAPSAGFPRPLAAPGAMHGSQKDTTFTKIFVGGLPYHTTDASLRKYFEGFGDIEEAVVITDRQTGKSRGYGFVTMADRAAAERACKDPNPIIDGRKANVNLAYLGAKPRSLQTGFAIGVQQLHPTLIQRTYGLTPHYIYPPAIVQPSVVIPAAPVPSLSSPYIEYTPASPAYAQYPPATYDQYPYAASPATAASFVGYSYPAAVPQALSAAAPAGTTFVQYQAPQLQPDRMQ

What was measured:
Experiment in all cases: pull-down
[1] = biological target: B1
[2] = biological target: His-tagged HuR (recombinant) (UniProt Q15717 1-326)
GST-HuR (1–326) = GST-HuR (1–326) (UniProt Q15717 1-326)

binding result [1] | Binder | other results
binds | GST-HuR (183–326) (domain or fragment, UniProt Q15717 183-326, looked up) FAANPNQNKNVALLSQLYHSPARRFGGPVHHQAQRFRFSPMGVDHMSGLSGVNVPGNASSGWCIFIYNLGQDADEGILWQMFGPFGAVTNVKVIRDFNTNKCKGFGFVTMTNYEEAAMAIASLNGYRLGDKILQVSFKTNKSHK | –
binds | GST-HuR (134–326) (domain or fragment, UniProt Q15717 134-326, looked up) NSRVLVDQTTGLSRGVAFIRFDKRSEAEEAITSFNGHKPPGSSEPITVKFAANPNQNKNVALLSQLYHSPARRFGGPVHHQAQRFRFSPMGVDHMSGLSGVNVPGNASSGWCIFIYNLGQDADEGILWQMFGPFGAVTNVKVIRDFNTNKCKGFGFVTMTNYEEAAMAIASLNGYRLGDKILQVSFKTNKSHK | –
binds | GST-HuR (Δ95-244) (natural protein, UniProt Q15717 1-326, looked up) MSNGYEDHMAEDCRGDIGRTNLIVNYLPQNMTQDELRSLFSSIGEVESAKLIRDKVAGHSLGYGFVNYVTAKDAERAINTLNGLRLQSKTIKVSCIFIYNLGQDADEGILWQMFGPFGAVTNVKVIRDFNTNKCKGFGFVTMTNYEEAAMAIASLNGYRLGDKILQVSFKTNKSHK | –
– | GST-RNPC1a (natural protein, UniProt Q9H0Z9-1 1-239, looked up) MLLQPAPCAPSAGFPRPLAAPGAMHGSQKDTTFTKIFVGGLPYHTTDASLRKYFEGFGDIEEAVVITDRQTGKSRGYGFVTMADRAAAERACKDPNPIIDGRKANVNLAYLGAKPRSLQTGFAIGVQQLHPTLIQRTYGLTPHYIYPPAIVQPSVVIPAAPVPSLSSPYIEYTPASPAYAQYPPATYDQYPYAASPATAASFVGYSYPAAVPQALSAAAPAGTTFVQYQAPQLQPDRMQ | binding result [2]: binds
– | B1 | binding result (GST-HuR (1–326)): binds
